According to US10829756B2, “Discovery of enzymes from the alpha-keto acid decarboxylase family” (Regents of the University of California, priority 2015, dated 2020):
“And” between values parts separate entries of the source, which are not always exact repeats. Equal entries are not always repeated.

How the values were obtained:
[1] = tested on: synthetic recursive+1 pathway; experiment: In vivo alcohol production of the synthetic recursive+1 pathway (fermentation, GC-FID); assay type: cell-based, E. coli; conditions: for 1-Butanol production / 1-Ethanol production / 1-Heptanol production / 1-Hexanol production / 1-Octanol production / 1-Pentanol production / 1-Propanol production: forty hours, microaerobic, defined media
Procedure: The measured specificity and activity for each enzyme was used to select two candidates for further characterization of their ability to modulate alcohol production in vivo. The two enzymes with the highest activity and specificity (FIG. 4), KIVD_VLV and GEO 175, were tested for their ability to reprogram the synthetic recursive+1 pathway to produce long-chain alcohol products in vivo. The alcohol-producing biochemical pathway was adapted from a previous study used to synthesize alcohols of various lengths.^3,4 Starting from glucose, the aforementioned+1 pathway, involving LeuABCD, recursively elongates 2-ketoacids, starting with 2-ketobutyrate, into longer chained 2-ketoacids. These 2-ketoacids are then converted to aldehydes by ketoacid decarboxylases (native KIVD, KIVD_VLV, and GEO 175) and subsequently to alcohols by an alcohol dehydrogenase. Carbon flux through this alcohol synthesizing biochemical pathway is enhanced by overexpressing thrABC, ilvA, LeuABCD, and ADH6 on inducible plasmids transformed into E. coli.^3 The effects of overexpression were furthermore supported and maintained by knocking out the threonine exporter enzyme RhtA and the primary DNA recombination degradation enzyme RecA. The enzyme AdhE was also knocked out, which helps raise long chain alcohol production by eliminating a competing pathway where acetyl-CoA is directly converted to ethanol.^19
Genes were removed from the ATCC 98082 ΔrhtA strain genome using P1 transduction from the Keio collection as previously.^32 The aldehyde-alcohol dehydrogenase gene (adhE) was knocked out to eliminate ethanol production from acetyl-coA. In all strains, recA was knocked out to prevent recombination between the genome and plasmids, thereby stabilizing the transformants. Primers used to target recA for knockout were designed based on the Keio collection (Genobase, ecoli.aist-nara.ac.jp) and ordered from Integrated DNA Technologies.
For n-alcohol production, strains of ST128 were transformed with pZS_thrO, pZAlac_ilvABSleuA, and pZE_LeuA*BCDK*A6 containing various kivd mutations. Fermentation conditions were adapted from those in previous works,^3,4 with the following changes: 20 mL of medium was used, with 100 μg/mL ampicillin, […] kanamycin, and 100 μg/mL spectinomycin added. Cells were grown to an optical density at 600 nm of ˜0.6, followed by induction with 0.1 mM isopropyl-b-D-thiogalactoside (IPTG). After fermentation, cells were centrifuged for 15 minutes at 4000×g and 4° C. The supernatant was split into two fractions for analysis, 5 mL for short chain alcohols (ethanol, 1-propanol, and 1-butanol), and 15 mL for long chain alcohols (1-pentanol, 1-hexanol, 1-heptanol, and 1-octanol). Long chain alcohols were extracted from the 15 mL fraction by 3 mL n-hexane prior to analysis. GC-FID analysis was performed as previously described.^4

[2] = In vitro steady-state kinetics of purified 2-ketoacid decarboxylases (ADH/NADH-coupled), C8 substrate; assay type: biochemical; conditions: kcat/KM on C8
Procedure: For the native KIVD and KIVD_VLV mutant, 2 ml overnight cultures of XL1B cells were transformed with pQE9 containing N-terminal his-tagged KIVD enzymes and grown in Terrific Broth (BP biomedical, Cat#3046-042) with 50 μg/mL of carbenicillin. (Fisher scientific, Cat# BP2648-5) For the GEOs, 2 ml overnight cultures of BLR cells were transformed with pet29b+ plasmid containing N-terminal his-tagged GEOs, and grown in Terrific Broth with 50 μg/mL of kanamycin. (Fisher scientific, Cat# BP906-5) These cultures were diluted 1:1000 in 500 mL of Terrific Broth with 1 mM MgSO4, 1% glucose, and 50ug/mL of corresponding antibiotics, then grown at 37° C. for 24 hours. […] Protein concentrations were determined using a Synergy H1 spectrophotometer (Biotek) by measuring absorbance at 280 nm using their calculated extinction coefficients with ExPASy ProtParam Tool.^33 All other buffers and salts were purchased from Fisher Scientific unless otherwise specified.
The kcat and KM values of selective KIVD mutants were measured for the substrates: C3, C5, isoC5, and C8. […] Activity was measured at 0.005 mM to 10 mM substrates. […] Absorbance readings were taken every 1-minute at OD340 at 21° C. for 60 minutes using the Synergy H1. Kinetic parameters (kcat and KM) were determined by fitting initial velocity versus substrate concentration data to the Michaelis-Menten equation.

B1: Native KIVD: ketoisovalerate decarboxylase used in the current synthetic recursive+1 pathway, SEQ ID NO:1 (protein, listed as Lactococcus lactis)
chain: MYTVGDYLLDRLHELGIEEIFGVPGDYNLQFLDQIISRKDMKWVGNANELNASYMADGYARTKKAAAFLTTFGVGELSAVNGLAGSYAENLPVVEIVGSPTSKVQNEGKFVHHTLADGDFKHFMKMHEPVTAARTLLTAENATVEIDRVLSALLKERKPVYINLPVDVAAAKAEKPSLPLKKENSTSNTSDQEILNKIQESLKNAKKPIVITGHEIISFGLEKTVSQFISKTKLPITTLNFGKSSVDEALPSFLGIYNGKLSEPNLKEFVESADFILMLGVKLTDSSTGAFTHHLNENKMISLNIDEGKIFNESIQNFDFESLISSLLDLSEIEYKGKYIDKKQEDFVPSNALLSQDRLWQAVENLTQSNETIVAEQGTSFFGASSIFLKPKSHFIGQPLWGSIGYTFPAALGSQIADKESRHLLFIGDGSLQLTVQELGLAIREKINPICFIINNDGYTVEREIHGPNQSYNDIPMWNYSKLPESFGATEERVVSKIVRTENEFVSVMKEAQADPNRMYWIELILAKEDAPKVLKKMGKLFAEQNKS
For B1, the overall alcohol production [1] was 4.0 g/L, the “short alcohols (C2-C4) share of total alcohol production” value [1] was 82% and the 1-Butanol production [1] was 1964 ± 24 mg/L. For the same molecule, the 1-Ethanol production [1] was 652 ± 32 mg/L, the 1-Heptanol production [1] was 20 ± 3 mg/L and the 1-Hexanol production [1] was 75 ± 6 mg/L. The 1-Octanol production [1] was “not observed”, the 1-Pentanol production [1] was 594 ± 20 mg/L and the 1-Propanol production [1] was 693 ± 4 mg/L.

B2: GEO175: native enzyme from Streptomyces sp. C, predicted protein with no known function, 2-ketoacid decarboxylase, SEQ ID NO:2 (protein)
chain: MRTVRESALDVLRARGMTTVFGNPGSTELPMLKQFPDDFRYVLGLQEAVVVGMADGFALASGTTGLVNLHTGPGTGNAMGAILNARANRTPMVVTAGQQVRAMLTMEALLTNPQSTLLPQPAVKWAYEPPRAADVAPALARAVQVAETPPQGPVFVSLPMDDFDVVLGEDEDRAAQRAAARTVTHAAAPSAEVVRRLAARLSGARSAVLVAGNDVDASGAWDAVVELAERTGLPVWSAPTEGRVAFPKSHPQYRGMLPPAIAPLSRCLEGHDLVLVIGAPVFCYYPYVPGAHLPENTELVHLTRDADEAARAPVGDAVVADLALTVRALLAELPAREAAAPAARTARAESTAEVDGVLTPLAAMTAIAQGAPANTLWVNESPSNLGQFHDATRIDTPGSFLFTAGGGLGFGLAAAVGAQLGAPDRPVVCVIGDGSTHYAVQALWTAAAYKVPVTFVVLSNQRYAILQWFAQVEGAQGAPGLDIPGLDIAAVATGYGVRAHRATGFGELSKLVRESALQQDGPVLIDVPVTTELPTL
modifications: Streptomyces sp. C
With B2 the “catalytic efficiency on C8 lower than native KIVD” value [2] was 2 fold, the “drop of overall alcohol production from that obtained with KIVD” value [1] was about 10 fold and the “heptanol share of alcohol production” value [1] was 50%. For the same molecule, the “hexanol share of alcohol production” value [1] was 29%, the major alcohol product [1] was “heptanol (C7) and 1-heptanol” and the “pentanol share of alcohol production” value [1] was 16%. The 1-Butanol production [1] was 19 mg/L, the 1-Ethanol production [1] was “no ethanol or propanol production is observed” and the 1-Heptanol production [1] was 274 mg/L. The 1-Hexanol production [1] was 160 mg/L, the 1-Octanol production [1] was 10 mg/L and the 1-Pentanol production [1] was 88 mg/L. For the same molecule, the 1-Propanol production [1] was “no ethanol or propanol production is observed”, the 1-Butanol production ([1]; listed as GEO 175) was 19 ± 2 mg/L and the 1-Heptanol production ([1]; listed as GEO 175) was 274 ± 19 mg/L. For the same molecule, the 1-Hexanol production ([1]; listed as GEO 175) was 160 ± 18 mg/L, the 1-Octanol production ([1]; listed as GEO 175) was 10 ± 1 mg/L and the 1-Pentanol production ([1]; listed as GEO 175) was 88 ± 12 mg/L. The “long chain (≥C5) alcohols produced” value ([1]; sum of long chain alcohols) was 522 mg/L.
